# According to IntAct's records for PubMed 38123684:
# B1: cAMP-regulated phosphoprotein 19 (Homo sapiens), P56211 (parent)
# chain: MSAEVPEAASAEEQKEMEDKVTSPEKAEEAKLKARYPHLGQKPGGSDFLRKRLQKGQKYFDSGDYNMAKAKMKNKQLPTAAPDKTEVTGDHIPTPQDLPQRKPSLVASKLAG
# partner: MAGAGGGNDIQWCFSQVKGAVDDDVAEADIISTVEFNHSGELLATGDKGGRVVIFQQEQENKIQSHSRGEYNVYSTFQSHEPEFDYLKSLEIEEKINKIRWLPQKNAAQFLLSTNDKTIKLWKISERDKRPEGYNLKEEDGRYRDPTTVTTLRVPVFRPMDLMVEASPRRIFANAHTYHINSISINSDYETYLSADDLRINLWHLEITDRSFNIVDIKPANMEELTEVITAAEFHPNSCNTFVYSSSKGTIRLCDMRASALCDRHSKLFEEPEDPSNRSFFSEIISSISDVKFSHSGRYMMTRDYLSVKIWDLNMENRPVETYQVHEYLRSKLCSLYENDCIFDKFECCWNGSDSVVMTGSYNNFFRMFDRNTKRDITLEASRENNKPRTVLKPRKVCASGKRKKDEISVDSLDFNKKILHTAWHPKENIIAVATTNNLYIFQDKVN
# Variants of: B1
# Conditions: with 2aba_human PPP2R2A
row,effect of a mutation on the interaction,Variant
1,with no effect,S62E
